In the supplement of paper PMC10057847, “Precision engineering of biological function with large-scale measurements and machine learning” (PLOS ONE, 2023):
± gives the uncertainty stated by the source.

B1: library; the commonest letter at each place (parent)
chain: MKPVTLYDVAEYAGVSYQTVSRVVNQASHVSAKTREKVEAAMAELNYIPNRVAQQLAGKQSLLIGVATSSLALHAPSQIVAAIKSRADQLGASVVVSMVERSGVEACKAAVHNLLAQRVSGLIINYPLDDQDAIAVEAACTNVPALFLDVSDQTPINSIIFSHEDGTRLGVEHLVALGHQQIALLAGPLSSVSARLRLAGWHKYLTRNQIQPIAEREGDWSAMSGFQQTMQMLNEGIVPTAMLVANDQMALGAMRAITESGLRVGADISVVGYDDTEDSSCYIPPLTTIKQDFRLLGQTSVDRLLQLSQGQAVKGNQLLPVSLVKRKTTLAPNTQTASPRALADSLMQLARQVSRLESGQ

How the values were obtained:
Details in all cases: with IPTG
[1] = variants of: B1
Experimental: (§1)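 LacI variants on the pVER plasmid regulate eYFP behind lacO in E. coli MG1655Δlac, grown in rich M9 at 37 °C with a 2-fold IPTG dilution series. After two 160-min growth steps, YFP is read by flow cytometry and calibrated to MEF. Bayesian MCMC fits of the Hill equation give G0, G∞, EC50 and n (posterior mean ± SD).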

[2] = variants of: B1; experiment: Hill coefficient n (dimensionless); higher = steeper dose response
Experimental: as §1

[3] = variants of: B1; experiment: basal output G0 (YFP, no IPTG) (log10 MEF); higher = higher reporter expression without inducer
Experimental: as §1

[4] = variants of: B1; experiment: saturating output G-infinity (YFP) (log10 MEF); higher = higher reporter expression at saturating IPTG
Experimental: as §1

Variant	EC50 for IPTG (log10 µmol/L) [1]	Hill coefficient n [2]	basal output G0 (log10) [3]	saturating output G-infinity (log10) [4]
MKPVTLYDVAEYAGVSYQTVSRVVNQASHVSAKTREKVEAAMAELNYIPNRVAQQLAGKQSLLIGVATSSLALHAPSQIVAAIKSRADQQGASVVVSMVERSGVEACKAAVHNLLAQRVSGLIINYPLDDQDAIAVEAACTNVPALFLDVSDQTPINSIIFSHEDGTRLGVEHLVALGHQQIALLAGPLSSVSARLRMAGWHKYLTRNQIQPIAEREGDWSAMSGFQQTMQMLNDGIVPTAMLVANDQMALGAMRAITESGLRVGADISVVGYDDTEDSSCYIPPLTTIKQDFRLLGQTSVDRLLQLSQGQAVKGNQLLPVSLVKRKTTLAPNTQSASPRALADSLMQLARQVSRLESGQ [L90Q L198M E235D T336S]	1.88 ± 0.022	1.61 ± 0.073	2.51 ± 0.2	4.423 ± 0.0091
MKPVTLYDVAEYAGVSYQTVSRVVNQASHVSAKTREKVEAAMAELNYIPNRVAQQLAGKQSLLIGVATSSLALHAPSQIVAAIKSRAGQLGASVVVSMVERSGVEACKAAVHNLLAQRVSGLIINYPLDDQDAIAVEAACTNVPALFLDVSDQTPINSIIFSHEDGTRLGVEHLVALGHQQIALLAGPLSSVSARLRLAGWHKYLTRNQIQPIAEREGDWSAMSGFQQTMQMLNEGIVPTAMLVANDQMALGAMRAITESGLRVGADISVVGYDDTEDSSCYIPPLTTIKQDFRLLGQTSVDRLLQLSQGQAVKGNQLLPVSLVKRKTTLAPNTQTASPRALADSLMQLARQVSRLESGQ [D88G]	2.671 ± 0.015	1.41 ± 0.046	0.914 ± 0.56	3.854 ± 0.0057
MKPVTLYDVAEYAGVSYQTVSRVVNQASHVSAKTREKVEAAMAELNYIPNRVAQQLAGKQSLLIGVATSSLALHAPSQIVAAIKSRANQLGASVVVSMVERSGVEACKAAVHNLLAQRVSGLIINYPLDDQDAIAVEAACTNVPALFLDVSDQTPINSIIFSHEDGTRLGVEHLVALGHQQIALLAGPLSSVSARLRLAGWHKYLTRNQIQPIAEREGDWSAMSGFQQTMQMLNEGIVPTAMLVANDQMALGAMRAITESGLRVGADISVVGYDDTEDSSCYIPPLTTIKQDFRLLGQTSVDRLLQLSQGQAVKGNQLLPVSLVKRKTTLAPNTQTASPRALADSLMQLARQVSRLESGQ [D88N]	2.843 ± 0.028	1.33 ± 0.086	0.96 ± 0.58	3.479 ± 0.0093
MKPVTLYDVAEYAGVSYQTVSRVVNQASHVSAKTREKVEAAMAELNYIPNRVAQQLAGKQSLLIGVATSSLALHAPSQIVAAIKSRADLLGASVVVSMVERSGVEACKAAVHNLLAQRVSGLIINYPLDDQDAIAVEAACTNVPALFLDVSDQTPINCIIFSHEDGTRLGVKHLVALGHQQIALLAGPLSSVSARLRLAGWHKYLTRNQIQPIAEREGDWSAMSGFQQTMQMLNEGIVPTAMLVANDQMALGAMRAITESGLRVGADISVVGYDDTEDSSCYIPPLTTIKHDFRLLGQTSVDRLLQLSQGQAVKGNQLLPVSLVKRKTTLAPNTQTASPRALADSLMQLARQVSRLESGQ [Q89L S158C E172K Q291H]	2.457 ± 0.021	1.33 ± 0.04	3.336 ± 0.007	4.341 ± 0.0086
MKPVTLYDVAEYAGVSYQTVSRVVNQASHVSAKTREKVEAAMAELNYIPNRVAQQLAGKQSLLIGVATSSLALHAPSQIVAAIKSRAYQLGASVVVSMVERSGVEACKAAVHNLLAQRVSGLIINYPLDDQDAIAVEAACTNVPALFLDVSDQTPINSIIFSHEDGTRLGVEHLVALGHQQIALLAGPLSSVSARLRLAGWHKYLTRNQIQPIAEREGDWSAMSGFQQTMQMLNEGIVPTVMLVASDQMALGAMRAITESGLRVGADISVVGYDDTEDSSCYIPPLTTIKQDFRLLGQTSVDRLMQLSQGQAVKGNQLFPVSLVKRKTTLAPNTQTASTRTLADSSMQLARQVSRLESGQ [D88Y A241V N246S L305M L319F P339T A341T L346S]	2.73 ± 0.1	0.483 ± 0.058	4.455 ± 0.018	2.91 ± 1.1
